Laboratory results as given in PMC7713382, “Structural analysis and insight into effector binding of the niacin-responsive repressor NiaR from Bacillus halodurans” (Scientific Reports, 2020).

What was measured:
BhNiaR [1] = target: T1, BhNiaR (Halalkalibacterium halodurans, UniProt Q9KDJ7); test: X-ray crystal structure, co-crystallization, […] Å; assay type: binding; conditions: 2 mM niacin, 0.1 M Tris-HCl pH 8.5, 15% PEG 6000; Zn2+ in site; C-terminal 3H domain, carboxyl coordinates zinc and H-bonds His83, Tyr112 of second subunit in pocket
T1 construct: gene BH1216; full length, 179 residues; E. coli BL21(DE3) star pLysS, pET-28b(+); N-terminal His-tag removed with PreScission protease; residues 7-179 modelled
T1 sequence (Q9KDJ7 1-179): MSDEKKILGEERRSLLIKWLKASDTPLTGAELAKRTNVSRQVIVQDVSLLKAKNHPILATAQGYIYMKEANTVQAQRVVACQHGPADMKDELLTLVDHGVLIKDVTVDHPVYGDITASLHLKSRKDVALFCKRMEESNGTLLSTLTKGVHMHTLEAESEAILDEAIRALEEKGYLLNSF

[2] = target: niacin-responsive repressor NiaR from Bacillus halodurans (Bacillus halodurans); test: SEC-MALS; Superdex-200 10/300 GL, 20 mM Tris-HCl pH 8.0, 200 mM NaCl, 1 mM DTT; 10-12 mg/ml, 0.1 ml injected, 0.5 ml/min
BhNiaR [3] = target: T2, BhNiaR (Bacillus halodurans, UniProt Q9KDJ7 1-179); test: EMSA; 1 mM niacin; Zn2+-bound protein; EMSA: 20 mM Tris pH 8.0, 100 mM KCl, 1 mM MgCl2, 1 mM DTT, 5% glycerol, +/- 1 mM niacin; 80 nM DNA, 0-3 µM protein; 30 min at room temperature (Methods) or 277; conditions: protein: recombinant; tags: N-terminal His-tag removed with PreScission protease; chain copies: 2; label: none (SYBR Green stain); blunt
T2 sequence: T1 sequence (Q9KDJ7 1-179)

O=C(O)c1cccnc1 [niacin]
X-ray crystal structure, co-crystallization, 1.8 Å (BhNiaR [1]): A niacin molecule is bound to the C-terminal domain of BhNiaR near the metal-binding site.

niacin-responsive repressor NiaR from Bacillus halodurans (natural protein)
stoichiometry N [2]: 2

B1: nifS-nadB promoter 34-bp cognate DNA (type I) (dsDNA)
DNA 1: CTCATTTACATATGTCTTGACATCTATATTTACA
DNA 2: TGTAAATATAGATGTCAAGACATATGTAAATGAG
Kd (BhNiaR [3]): ~500 nM
